Experiment: soluble on expression in E. coli; label from the status in PepcDB or PDB records

Sequence | soluble on expression in E. coli
MAHHHHHHMSTRTILTAGEAAEVLASVRYVLLDVDGVLWAGKHVLPNIPETLLYLRLREKQIRFLTNNASISRAGLVREFQRRGIQGVREGEVYNSGFAAALRLQSLFTANKSTGSGRPLVERNIFVIGEEGLHEELRRVLAPGYIAYGMELHDAEKCGGYDAHVVASAWKQRVLPAPLQSSATSCGIAATGHAAGGISISDLSPAAVVVGLDMHFNMLKLAYASLCLQERPAAQTAGTSSSTPTYFIATNEDPQIPVGEDFLLLPGAGGMVSALRTVSGRSPDFVCGKPHVDMAKVFFEAEGITDPQQCLMVGDRLTTDIAFGNAAGCKTMLVLSGAEKMDRVRQAERDGHVSLLPDFIAPSLAIFLPPA | soluble
MAHHHHHHMSVIGVFSKGRATGHASVMSVLRYVPRARVPWQPSRFGRENLADDDMAQLWGTGRYRTGPGNYNSGYSTKKTHALEDSTVSIIPKHELEKFMPDISLGSKALVTPVSLMSARNGHRVTHDLIHSYDPYIGRLQKPAVVDHDNITVEDPNRVGLNAATLDCRSRIYRWLRRGPFFQEDNYFRRSTKLQRNGPVPVSVHEVPLMQRIIRLARRGHLKAACEEYRRVTSVPPVDVYRALTAACVPGAKLADAIAIFEDGHSRLFYVARDGEVLHNMLRCAIRAKHRVRVMWVYNVMVGRHYENVVVRAEVDVIWRYRIASLALEYLLDSNAGEEARTVYDYLVENELVDCDLHVRLGHVMQQALKEGKTVHVQQDALDGMALSQNVVAVAPQVAVAVYARYLETMQEGAAWTDARGLPLTDPAKTGADTNGAAAVAWLKAAFPDIDPVAVLRLARFRRSSKDLMAKDRPVYVQRAAQWVELLSSAHQTREEAPLTYLRKSRPSMANPNVRVAWLPERQRAHALLASDEGFKFAYAGPHTRFVEETFAYGENTLQSRYLAQQPVHTEVTPSVALGAAAVAAGMSSGSALPRLPGSSAAPQILHASVLLDGSLNGSSGSGTSTLRSGRNESAKAAASPTAGISSRPSSASSSAGLDDTHF | not soluble
MAHHHHHHMSVPLRRTVLHSLHLSRKARMGPFAGYDMPIHYQPGVVQEHLHTRQAAGLFDVSHVGFFEVWGADRHKFFEWVTPSGVTELQDGQSALTLFMNESGGVKDDCIVSKYSDHLLAVINAGCKGKIITHLKDRLAEFKGDATLVELDRAMVSLQGPKAASVMAPFVEELDRVKFMWGRRSVCVKGIDITLTRCSYSGEDGFDIIVPIQDAVQFVELLLQNPDVQLAGLGARDSLRTEAGLCLYSHELSEEVNPVAARLMWCIPKRRMAEGGFIGHERLQTFVQRAKELVPRLRMGILSVARGPVARTGMPILVGDVVVGEVTSGVPSPTLSRNIAIGYIDRAKARAGETVELEVRGKRLPGEVTLPRFVPQRYYKG | not soluble
MAHHHHHHMSVVRVSITHSSSGIRVPEKRYELSQTIASIKSNIFTHFATPPEQMQLQLIDDRGVKVESSMADDKQLGYYQCRDDFVIHVVDLRPTQQIANFEDVSQVQKYEITEEAYSKREDNARAFRQLMMARQREEAEKAGNPLPKELDADSYKETAEKIHVDDRCQCQPGDRLGTVRFVGRVASLKPGYWIGVEFDEPVGKGDGSVKGTRVFECQPKYGGFLRPDQVTVGDFPPEEF | not soluble
MAHHHHHHMSYPYYTEFFVRFPKFKEREESERTVDPRIELEKKCQAKCVRPVNEYQSCVSRVQAKPEMKGNCLGQHEEMYMCIDHCVAKDLFNYLV | not soluble
MAHHHHHHMTAAERLRRSRDNAVHHPKPSAATSSTISPALALSSSNSSPSANAAVPIEISPPPPNQGAVMIRYSKQQLLSLRPAAIEHVMRGRVVDHPPFLKIPESFAPLLSLPFAMEYVNVDAAMQLVEHRSYASRPASSPPTSVARTEDLDDEAQARLYTCPVCAQGRLHSCTAIQHILQRTSRYFMSTKLGAALMQPALVVESLLQLALVFDAKQSSLRLRMLAEQSPRVVHLVEEYLCGEGYHLPLPPVTAHEDWAALNAMLRFDAIRDNKTRVITDLSKHWKKRRTQFEQFVYFFAFRDARPVRPAKNIITKSAKPGMVAMLTGDVPAMVLLHRLGFFIPPDYYWKVFPFLRQALGEGTLSYDVVRHLGLYLSSAQPADMYNPVEVPIHA | soluble
MAHHHHHHMTACSARAQAAAAVHTVVVSLTARREWWKHTCALDSASVFIVHTSDCPPPNRYTARAYPLRCEARLSLHVYANLPAPVSRQCITFLSFRGIYLSPLFCCPPLRHSFHAPAHQFQPPPPSSPFPTLPTRATQHHHHCSHTRVHQICPAVPSLSALSNILTVSAMSAKTAAAPSERSFVDRFVRSHAGAATAAGILEIGFFHPFDTIAKRLMANKGSIMRGSTGETAANLNIIVFKKHADAGFLRKVVYLYPGSLYATVYKVFQRVYKFAGQPLVRDFLSSNYRDGFKRYFGEAHKVMEDATAGCLIGLGEVFLLPLDRLKVLSQTNEAAMRSGLLPLLRQEGFRGMYAGTVVTMCRNAPGSFCLFGGTAFTKGYIFGLSDYRHATLFQNMCASTVGACVAIAISNPMDVVKTRVQQQTAAERCSGMAMATAMLKEEGMLSFFKGLTPKIIASAPKLIFAYTMTEFFFKVMNDSKKH | not soluble
MAHHHHHHMTAHHALLLGSLVDDVDLSVRRGAQADTLTVDGAADRLLSAIASYTKSAAATDVDVEDNGEAAQETAALSLMAHMQRLSLLCNAARTPETSCTSAGEDNIHKCVDDWAKWLLGLESKPIVLASKVALCLPPLQACWRGGSALDGAGSAHIDRIEEAIGSFFAHAARRCVTEWTTHGAPLRTLLPPLALLTTYARFRWAWSRFTELRHVGGGEHLGEAEGGIAVVGSSDTVQRQENRDIDFLGIAGEVESCHAAKLTREVLLHSLKTIDWRVGSAVPAVKEVAPLFWCVFLRCRSYALHSCSQCRSSSSDFFAHEASARLVAQVLRCTVDGVRLCIERQAADMHVARARQLCTCDIPCLVLLTRLWFSWIALATDAAAVLLPRLERSLRQLVSSVVKLRGGAETKPPPSSVAAALAENSAEASWTEQETLFVEVAWKVAPLSMSEIASATAAVPWTSEFVRASEVQAVLEKRTLVAPVP | not soluble
MAHHHHHHMTNLNVESGYFNDELKEEANEANFMYTNISMLIRAHRKDRNKLTLQNKKLNLIKIVGFVLAIEEKKEFIVYTVDDSTGYIKAKLLLTYSYSACNDKNEDIKVDDMVQIFGICNTVSINEDLTISISSINKVNSLNHLCHHHLLVFHNYLKFLETQKKNLALEDERAKNEEDEIAPHVPTNDNPFFNSFFY | not soluble
MAHHHHHHMTSLTEEHEILIDEPPQFTAAAEVIAVGAEEPTVATPEEFTSAQEAGAFLQTPVGTPPATPTSVPTTPSPNEMAAKHARKRWRMEQLALQESVKVVESEPISRRGHSRKAEMSEFAITKAATLNTAPTLLSMSPNIIDTNVTMLGTKRVPLDNFLKVTVLHPKVTPVNLKLEFIDPVLEPVQLSRHQLGNRVTPNEGEGGGMSVKKKRGRKPLVASPSIEEAKAVESGYNAE | not soluble
MAHHHHHHMTTLEKRIEEASGLIYRARAEETPDGNPLVAARNYIAAMEIITNICKDVSPESDNDKDRFFLFQVRQRMEVYQKRVQLLLSVAAEMGLDDIPEHVGNTVLDSPPHAGDRTGAADFENPAVPSTAPTSVPPPACADGFGENVPPLEYFFSQQPQAPTRPHPEETESVEALLGQFSFDEVKKE | soluble
MAHHHHHHMTVYHEQFALVPPQYPRRAVQEAENHRALAALYELVENAIATAENYVAYTEGRLVPLSSRGSELLAASKELRERYRHEAPCGWTEQKVMQHCEQEVTVEEMAELLLRPPLDVSGIRSILRTLQETRTQLPRGRFLLMRDNLSALKPHQPPDLVRDLSDVCGALYEIQYVDLMAELRAELSELDGERDKVQEKLKDAIHLYERALAKGDVVEVERAHRQLIAARYEFVNACAKLMHQILGEDMASQESGFAAEMEALRRDATDSISRFVEALHERRQAFRNDLHNCDKKRLEEDGNHQKCLEAYNAEERETAAQIGQIVEQKKKLVEELRQKARELRDITLKQKEMVEAQVRAKRAEEERVTAYNEFVNMEEQQKHRLLRCLAYFDGMEELTADLRSYVDEMVTRIPQQNLRQVIDQLNDIEAEAFMNAYSGFVSCCGELTVKKMHRLDTLERQARLLEHNRDSAMESLDPNMSNYRLELDDIIEQMKGVSGVINALNATQDAGEQLFQSVEKGVLAKYERSGTPFVHPLQEYGIKSVEERNRFVDRSMHYVENEERKVFEKRNVLNRMRQAVEEDEAATESAIRNLPAAPEY | soluble
MAHHHHHHMVGLVKPLFPNTLLTEAQDERRLLTLVLDLDETLVSNRDSRQSAAVLRPYCLHVLNALRHMKELEIVLWTASTKETALPVVDQLHKTGIIFDDIIFRNSIWFTQPIHTKDLRLLGRDMNRVLIVDNSVGCCKLHPRNALLVEDFHGVKRREDAALVNVYYVVDALLRMMRERTMPVSEGLGCLMAEGQLCHPVSYDLPAFFKCIPLTEVPELKRPPVGRFARANTAPPNTSIMQHWVY | soluble
MAHHHHHHMVIFFGRAQTRRVTGKVVVFGATTNVGKHLSLLLTLSPQVKELCCFDPLNDVTLRMTETRVRGIVKDLSHIDTGVVLRAVDDPQQWEPAMRNAQLVLICTGSIPNPSRLQRDLALAECAPEYLVAMELVARAAPHAIVGIASGPVNSLVPLAREVLLRHSAFDPRKLFGITSRDVMRTRVLFAKELHMNPYDVNVHVVGGKGDATVCPLITQTGFQLPHQRMVQLCEEVQRPENFTAGDHNSTGCRVDSQNVQGQEKFTCPTLSTANAAYEWVTSIMKAQRGDRGITECSFVESSIKRETPFFSSRVELGEEGAAQLLPLGALTPYEEELVAAAVPLIVEDVEAGLRLSKTGVDAVS | not soluble
MAHHHHHHMVLTLDCSQAVQNTIRELQDTRAFTDDDGAETIATTWFSDVGLCITGYTRDLVAAINSQGTPSVVVVIQNLHTFADRQRQKVLKIHQRYFNSVLSDTTKVVPVVSQDDYTKILRHMQVSKIRTLKWRDQHPYMAVEEKAYNPETQELTITGHLRGMPLSATQLVHLTNHGTFQVCKIEEVRKGDERVLIETSEAAQRESLQQVQANSTLEDDGFPTDADVLYHQEIAGTHKIRVPAGVSSDQAAWYDTEENIVKDSAPKHQHITMDDEDAFAGDAMSYRTTQTDVDFLKAEDVVRLERMTDEERILEMEKLKELSEEETWNPDMVDTPVNIPARQRFAKYRGMRSFHTGRWDPAENLPPQYAYIYKLQGYSRIRESAIDACEGGMAEVGMCIAITLVNVPQSVWNACERCLLIASGQLQHEQKWSVLHFQVQRASELDEPIKSKTPMLAHIGFRKFYVSPLFSDISSGDRSKFARFFHEGDRFRMATFFGPISYNPCPLLLFQVPSLEEQAEGNPLRLACFGGSLPPNPETLLLKRAVLSGRVAVIHKKQVVVKYMFFNDEDIKWFQPVDLYTKFGRRGKITKPVGTHGLFKAVLNDQIMQHDVVCMDLFKRVFPKWTTVAFSMSDVPAGHTENEEER | not soluble
MAHHHHHHMVNTLLNYSESIQLGDELSNLLEFTREMNAYLRGTQVAESDVLREAHNSFAPTEFFVLHDETPDASDVYHFVSFVYKNGAVWELDGLQKGPILAADATDGNYKEKLVEVVQKRVIDKSAADNTGTGQGISFSLMAVVDDRLLQLEKEIEEAKAREEPTAYLAEQLEELRLQREKGRAENQRRRHNYVPMIVELLKALAEKGKLEGIVEEALAKKAASASSDRS | soluble

— the DeepSol protein solubility set
